Target: human CD40 (human, UniProt P25942 21-277)
Experiment: cell binding (GpL luciferase, HT1080-CD40); single representative experiment

Sequence of human CD40 (P25942 21-277): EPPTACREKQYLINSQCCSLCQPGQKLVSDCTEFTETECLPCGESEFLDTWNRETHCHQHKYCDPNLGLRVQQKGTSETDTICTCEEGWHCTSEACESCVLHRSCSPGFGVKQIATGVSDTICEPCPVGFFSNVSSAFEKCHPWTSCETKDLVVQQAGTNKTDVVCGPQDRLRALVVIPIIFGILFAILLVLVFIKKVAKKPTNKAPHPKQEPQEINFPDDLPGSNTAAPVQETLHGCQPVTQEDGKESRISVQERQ

Kd: 0.14 µg/mL
B1: GpL-CD40L, a fusion protein of soluble CD40L and Gaussia princeps luciferase (GpL) (ligand)
chain: GDQNPQIAAHVISEASSKTTSVLQWAEKGYYTMSNNLVTLENGKQLTVKRQGLYYIYAQVTFCSNREASSQAPFIASLCLKSPGRFERILLRAANTHSSAKPCGQQSIHLGGVFELQPGASVFVNVTDPSQVSHGTGFTSFGLLKL

Source: patent US20260092124A1 (published 2026)
